From US12427210B2, “Compounds comprising a fibroblast activation protein ligand and use thereof” (priority 2019, dated 2025)

Key:
[1] = target: T1, A20 (Homo sapiens (Human)) (UniProt P21580)
T1 sequence: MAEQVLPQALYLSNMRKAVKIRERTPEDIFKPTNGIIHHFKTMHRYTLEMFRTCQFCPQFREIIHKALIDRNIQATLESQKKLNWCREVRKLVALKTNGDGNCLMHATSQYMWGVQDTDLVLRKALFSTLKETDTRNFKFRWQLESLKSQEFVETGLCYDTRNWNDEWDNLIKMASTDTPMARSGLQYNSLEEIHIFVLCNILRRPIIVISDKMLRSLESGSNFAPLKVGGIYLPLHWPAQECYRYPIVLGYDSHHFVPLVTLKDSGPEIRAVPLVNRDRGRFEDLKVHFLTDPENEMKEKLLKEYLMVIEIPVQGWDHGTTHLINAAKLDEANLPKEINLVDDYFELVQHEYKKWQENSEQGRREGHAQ

[2] = target: Activated Protein C (Homo sapiens (Human)) (UniProt P04070)
[3] = target: Ataxin3 (Homo sapiens (Human)) (UniProt P54252)
Sequence of Ataxin3 (Homo sapiens (Human)) (P54252 whole entry): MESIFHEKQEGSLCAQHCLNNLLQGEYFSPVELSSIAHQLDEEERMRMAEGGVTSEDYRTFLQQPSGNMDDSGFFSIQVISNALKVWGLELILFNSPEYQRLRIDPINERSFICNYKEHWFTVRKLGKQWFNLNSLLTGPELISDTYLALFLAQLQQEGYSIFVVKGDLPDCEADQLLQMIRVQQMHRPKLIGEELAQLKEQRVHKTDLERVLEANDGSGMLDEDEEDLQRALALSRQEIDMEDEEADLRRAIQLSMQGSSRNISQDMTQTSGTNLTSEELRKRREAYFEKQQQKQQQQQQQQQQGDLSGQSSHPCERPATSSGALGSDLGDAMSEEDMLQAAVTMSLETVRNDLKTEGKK

[4] = target: T2, Caspase-3 (Homo sapiens (Human)) (UniProt P42574)
T2 sequence: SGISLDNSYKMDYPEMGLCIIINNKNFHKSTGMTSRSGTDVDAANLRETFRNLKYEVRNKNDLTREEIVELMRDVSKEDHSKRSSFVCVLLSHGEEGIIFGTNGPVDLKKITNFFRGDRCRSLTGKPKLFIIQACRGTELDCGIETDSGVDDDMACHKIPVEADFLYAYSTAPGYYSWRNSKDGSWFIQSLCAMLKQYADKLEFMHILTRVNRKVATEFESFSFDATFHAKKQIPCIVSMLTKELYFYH

[5] = target: T3, Caspase-6 (Homo sapiens (Human)) (UniProt P55212)
T3 sequence: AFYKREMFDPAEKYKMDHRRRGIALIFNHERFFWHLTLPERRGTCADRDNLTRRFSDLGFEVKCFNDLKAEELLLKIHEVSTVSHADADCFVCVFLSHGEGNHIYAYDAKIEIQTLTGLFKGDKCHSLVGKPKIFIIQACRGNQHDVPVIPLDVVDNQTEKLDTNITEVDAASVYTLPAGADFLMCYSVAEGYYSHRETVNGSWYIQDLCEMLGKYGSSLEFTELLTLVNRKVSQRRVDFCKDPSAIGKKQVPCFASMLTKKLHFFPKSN

[6] = target: T4, Caspase-7 (Homo sapiens (Human)) (UniProt P55210)
T4 sequence: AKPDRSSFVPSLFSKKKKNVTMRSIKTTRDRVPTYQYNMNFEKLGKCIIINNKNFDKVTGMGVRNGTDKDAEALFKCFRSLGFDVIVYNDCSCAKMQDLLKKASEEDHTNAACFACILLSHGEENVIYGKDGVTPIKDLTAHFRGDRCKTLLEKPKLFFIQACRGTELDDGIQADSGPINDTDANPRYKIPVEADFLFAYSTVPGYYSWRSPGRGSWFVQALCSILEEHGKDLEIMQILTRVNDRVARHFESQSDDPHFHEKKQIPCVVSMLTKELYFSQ

[7] = target: Caspase-9 (Homo sapiens (Human)) (UniProt P55211)
Sequence of Caspase-9 (Homo sapiens (Human)) (P55211 whole entry): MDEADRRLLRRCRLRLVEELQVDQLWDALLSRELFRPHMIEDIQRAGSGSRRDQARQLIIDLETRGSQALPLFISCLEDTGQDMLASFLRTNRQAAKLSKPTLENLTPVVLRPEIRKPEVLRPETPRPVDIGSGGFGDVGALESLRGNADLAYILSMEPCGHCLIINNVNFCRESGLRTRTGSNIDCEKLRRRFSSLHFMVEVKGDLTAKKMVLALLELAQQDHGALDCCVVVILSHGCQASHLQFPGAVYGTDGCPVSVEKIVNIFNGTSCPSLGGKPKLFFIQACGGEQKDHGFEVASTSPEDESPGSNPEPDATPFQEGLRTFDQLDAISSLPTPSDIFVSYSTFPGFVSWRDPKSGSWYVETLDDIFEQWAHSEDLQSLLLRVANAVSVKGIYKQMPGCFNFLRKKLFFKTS

[8] = target: Cathepsin B (Homo sapiens (Human)) (UniProt P07858)
[9] = target: T5, Cathepsin F (Homo sapiens (Human)) (UniProt Q9UBX1)
T5 sequence: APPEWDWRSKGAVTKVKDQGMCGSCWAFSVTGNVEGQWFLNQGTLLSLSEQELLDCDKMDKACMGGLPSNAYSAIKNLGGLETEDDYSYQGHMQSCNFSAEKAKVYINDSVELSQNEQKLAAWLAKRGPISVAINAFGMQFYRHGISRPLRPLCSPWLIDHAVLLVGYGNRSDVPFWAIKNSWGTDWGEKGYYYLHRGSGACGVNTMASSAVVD

[10] = target: Cathepsin L (Homo sapiens (Human)) (UniProt P07711)
[11] = target: Cathepsin S (Homo sapiens (Human)) (UniProt P25774)
[12] = target: DPP7 (Homo sapiens (Human)) (UniProt Q9UHL4)
[13] = target: DPP9 (Homo sapiens (Human)) (UniProt Q86TI2)
[14] = target: FAP (enzyme of the specificity protease screening) (Homo sapiens (Human)) (UniProt Q12884)
Sequence of FAP (enzyme of the specificity protease screening) (Homo sapiens (Human)) (Q12884 26-760 limits assumed): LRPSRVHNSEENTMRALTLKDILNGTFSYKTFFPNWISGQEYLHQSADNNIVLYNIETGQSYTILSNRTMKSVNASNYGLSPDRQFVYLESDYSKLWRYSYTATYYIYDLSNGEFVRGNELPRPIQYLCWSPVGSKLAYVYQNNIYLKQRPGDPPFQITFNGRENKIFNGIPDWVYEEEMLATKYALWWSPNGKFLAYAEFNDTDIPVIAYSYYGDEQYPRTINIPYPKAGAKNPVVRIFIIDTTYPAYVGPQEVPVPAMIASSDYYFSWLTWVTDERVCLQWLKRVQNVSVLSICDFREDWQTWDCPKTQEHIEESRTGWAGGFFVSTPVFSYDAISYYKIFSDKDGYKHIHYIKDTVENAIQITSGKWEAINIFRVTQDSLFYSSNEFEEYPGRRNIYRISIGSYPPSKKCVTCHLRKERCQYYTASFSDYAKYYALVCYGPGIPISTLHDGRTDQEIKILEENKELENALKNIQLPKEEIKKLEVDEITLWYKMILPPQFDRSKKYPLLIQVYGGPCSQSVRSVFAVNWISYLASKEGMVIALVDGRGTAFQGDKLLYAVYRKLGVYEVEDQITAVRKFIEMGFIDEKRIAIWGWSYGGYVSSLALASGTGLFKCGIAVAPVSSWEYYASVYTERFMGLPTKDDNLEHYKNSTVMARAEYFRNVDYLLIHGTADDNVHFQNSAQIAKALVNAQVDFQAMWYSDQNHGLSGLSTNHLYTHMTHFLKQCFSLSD

[15] = target: Matrix metalloprotease 2 (Homo sapiens (Human)) (UniProt P08253)
Sequence of Matrix metalloprotease 2 (Homo sapiens (Human)) (P08253 110-660): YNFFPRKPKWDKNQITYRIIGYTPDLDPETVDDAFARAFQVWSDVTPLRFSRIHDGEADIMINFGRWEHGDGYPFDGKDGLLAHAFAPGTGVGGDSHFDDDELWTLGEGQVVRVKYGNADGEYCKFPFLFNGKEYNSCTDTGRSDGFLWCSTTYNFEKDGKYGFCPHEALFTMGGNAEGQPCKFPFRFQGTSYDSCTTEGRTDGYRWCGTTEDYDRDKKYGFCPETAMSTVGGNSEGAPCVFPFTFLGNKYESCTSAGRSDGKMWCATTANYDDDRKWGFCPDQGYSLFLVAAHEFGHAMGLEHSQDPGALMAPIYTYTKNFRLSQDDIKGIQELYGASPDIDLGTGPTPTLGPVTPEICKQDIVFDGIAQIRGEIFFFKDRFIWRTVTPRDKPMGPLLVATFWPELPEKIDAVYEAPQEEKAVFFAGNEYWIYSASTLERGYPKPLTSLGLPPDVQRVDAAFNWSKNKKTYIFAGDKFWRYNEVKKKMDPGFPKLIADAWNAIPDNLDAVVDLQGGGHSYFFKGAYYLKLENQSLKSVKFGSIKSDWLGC

[16] = target: Matrix metalloprotease 9 (mutant Q279R) (Homo sapiens (Human)) (UniProt P14780)
[17] = target: Matrix metalloprotease1 (Homo sapiens (Human)) (UniProt P03956)
Sequence of Matrix metalloprotease1 (Homo sapiens (Human)) (P03956 100-469): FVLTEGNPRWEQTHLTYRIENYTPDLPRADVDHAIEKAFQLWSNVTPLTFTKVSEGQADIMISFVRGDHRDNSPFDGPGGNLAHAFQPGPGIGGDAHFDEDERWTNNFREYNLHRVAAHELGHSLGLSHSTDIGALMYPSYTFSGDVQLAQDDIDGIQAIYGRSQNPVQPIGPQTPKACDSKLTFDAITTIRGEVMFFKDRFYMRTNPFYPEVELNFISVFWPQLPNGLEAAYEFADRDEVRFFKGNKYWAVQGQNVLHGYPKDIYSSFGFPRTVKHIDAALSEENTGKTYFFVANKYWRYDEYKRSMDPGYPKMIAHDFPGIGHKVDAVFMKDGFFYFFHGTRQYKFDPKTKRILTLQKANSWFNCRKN

[18] = target: Ubiquitin carboxy-terminal hydrolase L1 (Homo sapiens (Human)) (UniProt P09936)
[19] = target: T6, Ubiquitin carboxy-terminal hydrolase L3 (Homo sapiens (Human)) (UniProt P15374)
T6 sequence: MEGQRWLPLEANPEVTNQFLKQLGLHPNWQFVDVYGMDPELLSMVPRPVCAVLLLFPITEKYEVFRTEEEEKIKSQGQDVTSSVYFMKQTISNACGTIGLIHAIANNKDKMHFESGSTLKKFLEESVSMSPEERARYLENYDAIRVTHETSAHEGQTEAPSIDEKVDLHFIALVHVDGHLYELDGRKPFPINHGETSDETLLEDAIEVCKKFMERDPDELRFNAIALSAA

[20] = target: Ubiquitin carboxyl-terminal hydrolase 10 (Homo sapiens (Human)) (UniProt Q14694)
Sequence of Ubiquitin carboxyl-terminal hydrolase 10 (Homo sapiens (Human)) (Q14694 whole entry): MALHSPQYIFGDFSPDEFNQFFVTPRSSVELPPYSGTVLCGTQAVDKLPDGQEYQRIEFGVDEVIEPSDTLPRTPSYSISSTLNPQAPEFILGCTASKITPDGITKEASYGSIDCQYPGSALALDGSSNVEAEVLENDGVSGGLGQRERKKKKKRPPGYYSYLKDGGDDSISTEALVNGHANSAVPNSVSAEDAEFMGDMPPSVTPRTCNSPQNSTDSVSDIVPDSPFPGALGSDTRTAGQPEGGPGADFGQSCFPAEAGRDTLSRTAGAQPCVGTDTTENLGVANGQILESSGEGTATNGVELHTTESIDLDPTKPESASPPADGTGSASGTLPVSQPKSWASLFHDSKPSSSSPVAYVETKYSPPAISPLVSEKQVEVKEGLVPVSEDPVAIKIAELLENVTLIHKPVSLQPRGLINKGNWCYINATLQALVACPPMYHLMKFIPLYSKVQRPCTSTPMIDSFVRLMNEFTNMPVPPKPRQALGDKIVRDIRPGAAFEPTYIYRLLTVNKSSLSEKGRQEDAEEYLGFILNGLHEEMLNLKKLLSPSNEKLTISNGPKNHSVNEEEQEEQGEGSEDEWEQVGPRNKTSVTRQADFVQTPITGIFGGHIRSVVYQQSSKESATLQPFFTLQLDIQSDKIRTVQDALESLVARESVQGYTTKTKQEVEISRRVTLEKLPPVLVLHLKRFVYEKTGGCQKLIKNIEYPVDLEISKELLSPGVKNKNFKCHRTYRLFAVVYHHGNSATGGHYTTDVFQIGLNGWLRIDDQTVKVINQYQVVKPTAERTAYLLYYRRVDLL

[21] = target: Ubiquitin carboxyl-terminal hydrolase 5 (Homo sapiens (Human)) (UniProt P45974)
Sequence of Ubiquitin carboxyl-terminal hydrolase 5 (Homo sapiens (Human)) (P45974 whole entry): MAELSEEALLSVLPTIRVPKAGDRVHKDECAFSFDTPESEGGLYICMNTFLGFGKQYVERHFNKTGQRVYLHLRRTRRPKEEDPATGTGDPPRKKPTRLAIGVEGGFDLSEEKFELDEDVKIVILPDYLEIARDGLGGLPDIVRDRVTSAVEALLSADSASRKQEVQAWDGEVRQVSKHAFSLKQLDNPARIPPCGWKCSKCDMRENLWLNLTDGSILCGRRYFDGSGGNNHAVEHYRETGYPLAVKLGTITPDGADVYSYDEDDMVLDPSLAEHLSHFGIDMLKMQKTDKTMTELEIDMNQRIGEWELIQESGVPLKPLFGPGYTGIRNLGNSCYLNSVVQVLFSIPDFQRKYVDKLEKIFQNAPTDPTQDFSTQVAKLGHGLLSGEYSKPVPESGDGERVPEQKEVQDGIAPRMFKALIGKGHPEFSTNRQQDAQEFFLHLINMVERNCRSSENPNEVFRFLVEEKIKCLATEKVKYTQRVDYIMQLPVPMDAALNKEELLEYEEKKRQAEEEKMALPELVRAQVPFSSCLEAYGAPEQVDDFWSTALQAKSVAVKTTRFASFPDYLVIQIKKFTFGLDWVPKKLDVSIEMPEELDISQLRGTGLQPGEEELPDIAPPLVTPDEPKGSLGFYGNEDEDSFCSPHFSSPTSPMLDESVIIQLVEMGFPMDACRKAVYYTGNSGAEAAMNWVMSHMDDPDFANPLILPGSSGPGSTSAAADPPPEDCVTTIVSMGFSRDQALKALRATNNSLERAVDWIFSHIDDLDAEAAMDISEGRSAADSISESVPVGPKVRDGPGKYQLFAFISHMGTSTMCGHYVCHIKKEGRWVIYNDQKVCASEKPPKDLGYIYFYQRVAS

[22] = target: Ubiquitin carboxyl-terminal hydrolase 7 (Homo sapiens (Human)) (UniProt Q93009)
[23] = target: serine protease NS3 (a.a. 3-181) from Hepatitis C virus genotype 1a (mutant D168V) (Hepatitis C virus genotype 1a)
[24] = target: serine protease NS3 (a.a. 3-181) from Hepatitis C virus genotype 1b (Hepatitis C virus genotype 1b)
[25] = target: serine protease NS3 (a.a. 3-181) from Hepatitis C virus genotype 1b (mutant D168V) (Hepatitis C virus genotype 1b)
[26] = target: serine protease NS3 (a.a. 3-181) from Hepatitis C virus genotype 1b (mutant R155K) (Hepatitis C virus genotype 1b)
[27] = target: serine protease NS3 (a.a. 3-181) from Hepatitis C virus genotype 1b (mutant R155Q) (Hepatitis C virus genotype 1b)
[28] = target: serine protease NS3 (a.a. 3-181) from Hepatitis C virus genotype 2a (Hepatitis C virus genotype 2a)

Row | Substance | Percentage inhibition (%) (% inhibition at 10 µM) [1] | Percentage inhibition (%) (% inhibition at 10 µM) [2] | Percentage inhibition (%) (% inhibition at 10 µM) [3] | Percentage inhibition (%) (% inhibition at 10 µM) [4] | Percentage inhibition (%) (% inhibition at 10 µM) [5] | Percentage inhibition (%) (% inhibition at 10 µM) [6] | Percentage inhibition (%) (% inhibition at 10 µM) [7] | Percentage inhibition (%) (% inhibition at 10 µM) [8] | Percentage inhibition (%) (% inhibition at 10 µM) [9] | Percentage inhibition (%) (% inhibition at 10 µM) [10] | Percentage inhibition (%) (% inhibition at 10 µM) [11] | Percentage inhibition (%) (% inhibition at 10 µM) [12] | Percentage inhibition (%) (% inhibition at 10 µM) [13] | Percentage inhibition (%) (% inhibition at 1 µM) [14] | Percentage inhibition (%) (% inhibition at 10 µM) [15] | Percentage inhibition (%) (% inhibition at 10 µM) [16] | Percentage inhibition (%) (% inhibition at 10 µM) [17] | Percentage inhibition (%) (% inhibition at 10 µM) [18] | Percentage inhibition (%) (% inhibition at 10 µM) [19] | Percentage inhibition (%) (% inhibition at 10 µM) [20] | other results
1 | Hex-[Cys(tMeBn(DOTA-PP))-Pro-Pro-Thr-Gln-Phe-Cys]-Asp-NH2 (3BP-3407) (peptide) | -4 | 8 | 10 | -2 | -1 | -3 | 8 | 36 | -24 | 6 | 18 | -3 | 0 | 98 | 3 | 2 | 2 | 4 | 14 | 5 | Percentage inhibition (%) (% inhibition at 10 µM) [21]: 46; Percentage inhibition (%) (% inhibition at 10 µM) [22]: 5; Percentage inhibition (%) (% inhibition at 10 µM) [23]: -68; Percentage inhibition (%) (% inhibition at 10 µM) [24]: 5; Percentage inhibition (%) (% inhibition at 10 µM) [25]: -6; Percentage inhibition (%) (% inhibition at 10 µM) [26]: 5; Percentage inhibition (%) (% inhibition at 10 µM) [27]: 2; Percentage inhibition (%) (% inhibition at 10 µM) [28]: -2
2 | Hex-[Cys(tMeBn(DOTA-AET))-Pro-Pro-Thr-Gln-Phe-Cys]-OH (3BP-3554) (peptide) | 0 | 1 | -1 | -1 | -3 | -7 | -2 | 2 | -25 | -6 | -23 | -7 | -5 | 97 | -2 | 2 | -7 | 4 | 0 | -1 | Percentage inhibition (%) (% inhibition at 10 µM) [21]: -2; Percentage inhibition (%) (% inhibition at 10 µM) [22]: 1; Percentage inhibition (%) (% inhibition at 10 µM) [23]: -372; Percentage inhibition (%) (% inhibition at 10 µM) [24]: -9; Percentage inhibition (%) (% inhibition at 10 µM) [25]: -17; Percentage inhibition (%) (% inhibition at 10 µM) [26]: 0; Percentage inhibition (%) (% inhibition at 10 µM) [27]: -5; Percentage inhibition (%) (% inhibition at 10 µM) [28]: -40
